In publication PMC3401449 (Nucleic Acids Research, 2012):

Molecular target: T1, His-tagged, wild-type DNA polymerase IV (Pol IV) (Escherichia coli, UniProt Q47155 1-351)
T1 sequence (looked up): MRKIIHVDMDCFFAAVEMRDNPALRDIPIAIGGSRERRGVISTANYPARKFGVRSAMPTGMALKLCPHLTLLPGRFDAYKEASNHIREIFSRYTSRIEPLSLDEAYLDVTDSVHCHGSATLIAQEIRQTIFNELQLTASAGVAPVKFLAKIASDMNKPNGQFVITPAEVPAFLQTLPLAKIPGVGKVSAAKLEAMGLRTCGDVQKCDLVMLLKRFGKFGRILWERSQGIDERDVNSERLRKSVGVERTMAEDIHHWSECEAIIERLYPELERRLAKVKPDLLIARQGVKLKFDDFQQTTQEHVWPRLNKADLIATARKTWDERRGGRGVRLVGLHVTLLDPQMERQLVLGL
Test: pull-down

binding result: binds
Binder: WMDFDDDIPF [SSB-Ct peptide (Trp–Met–Asp–Phe–Asp–Asp–Asp–Ile–Pro–Phe)]
